Here are results for 3 proteins from patent publication US20170298425.

B1: TlpA-CC WT (TlpA coiled-coil domain, wild type) (protein)
chain: MRPATYEPEQIIEAGLALQAEGRNITGFALRNQVGGGNPTRLRQIWDEYQASQSTVVTEPVAELPVEVAEEVKAVSAALSERITQLATELNDKAVRAAERRVAEVTRAAGEQTAQAERELADAAQTVDDLEEKLDELQDRYDSLTLALESERSLRQQHDVEMAQLKERLAAAEENTRQREERYQEQKTVLQDALNAEQAQHKNTREDLQKRLEQISAEANARTEELKSERDKVNTLLTRLESQENALASERQQHLATRETLQQRLEQAIADTQARAGEIALERDRVSSLTARLESQEKASSEQLVRMGSEIASLTERCTQLENQRDDARLETMGEKETVAALRGEAEALKRQNQSLMAALSGNKQTGGQNA
As to B1, the Hill coefficient (fit of CD melting curve at 222 nm, 25-50 C) stood at 19.1.

B2: DED-TlpA-CC (TlpA coiled-coil domain with Asp-Glu-Asp appended to the N-terminus) (protein)
chain: DEDMRPATYEPEQIIEAGLALQAEGRNITGFALRNQVGGGNPTRLRQIWDEYQASQSTVVTEPVAELPVEVAEEVKAVSAALSERITQLATELNDKAVRAAERRVAEVTRAAGEQTAQAERELADAAQTVDDLEEKLDELQDRYDSLTLALESERSLRQQHDVEMAQLKERLAAAEENTRQREERYQEQKTVLQDALNAEQAQHKNTREDLQKRLEQISAEANARTEELKSERDKVNTLLTRLESQENALASERQQHLATRETLQQRLEQAIADTQARAGEIALERDRVSSLTARLESQEKASSEQLVRMGSEIASLTERCTQLENQRDDARLETMGEKETVAALRGEAEALKRQNQSLMAALSGNKQTGGQNA
B2: the Hill coefficient (fit of CD melting curve at 222 nm, 25-50 C) stood at 24.7.

B3: TlpA-CC-DED (TlpA coiled-coil domain with Asp-Glu-Asp appended to the C-terminus) (protein)
chain: MRPATYEPEQIIEAGLALQAEGRNITGFALRNQVGGGNPTRLRQIWDEYQASQSTVVTEPVAELPVEVAEEVKAVSAALSERITQLATELNDKAVRAAERRVAEVTRAAGEQTAQAERELADAAQTVDDLEEKLDELQDRYDSLTLALESERSLRQQHDVEMAQLKERLAAAEENTRQREERYQEQKTVLQDALNAEQAQHKNTREDLQKRLEQISAEANARTEELKSERDKVNTLLTRLESQENALASERQQHLATRETLQQRLEQAIADTQARAGEIALERDRVSSLTARLESQEKASSEQLVRMGSEIASLTERCTQLENQRDDARLETMGEKETVAALRGEAEALKRQNQSLMAALSGNKQTGGQNADED
Consider B3, for which the Hill coefficient (fit of CD melting curve at 222 nm, 25-50 C) was determined as 16.7.
